# B1: Rv0812 (Mycobacterium tuberculosis bifunctional aminodeoxychorismate lyase / D-amino acid transaminase) (enzyme)
# chain: MVVTLDGEILQPGMPLLHADDLAAVRGDGVFETLLVRDGRACLVEAHLQRLTQSARLMDLPEPDLPRWRRAVEVATQRWVASTADEGALRLIYSRGREGGSAPTAYVMVSPVPARVIGARRDGVSAITLDRGLPADGGDAMPWLIASAKTLSYAVNMAVLRHAARQGAGDVIFVSTDGYVLEGPRSTVVIATDGDQGGGNPCLLTPPPWYPILRGTTQQALFEVARAKGYDCDYRALRVADLFDSQGIWLVSSMTLAARVHTLDGRRLPRTPIAEVFAELVDAAIVSDR
# notes: also called Mtb Rv0812; WT-Rv0812
# Target: the molecule itself
# Experiment: crystal structure
protein,measurement,value
B1,stoichiometry N,2

# Reference: article PMC8105722 (The Journal of Experimental Medicine, 2021)
